{"source": "IntAct's records for PubMed 16938345", "parents": {"B1": {"name": "Linker for activation of T-cells family member 1 (Homo sapiens), O43561 (parent)", "chain": "MEEAILVPCVLGLLLLPILAMLMALCVHCHRLPGSYDSTSSDSLYPRGIQFKRPHTVAPWPPAYPPVTSYPPLSQPDLLPIPRSPQPLGGSHRTPSSRRDSDGANSVASYENEGASGIRGAQAGWGVWGPSWTRLTPVSLPPEPACEDADEDEDDYHNPGYLVVLPDSTPATSTAAPSAPALSTPGIRDSAFSMESIDDYVNVPESGESAEASLDGSREYVNVSQELHPGAAKTEPAALSSQEAEEVEEEGAPDYENLQELN"}}, "data": [{"variants_of": "B1", "conditions": "with grb2_human GRB2, P62993", "values": [{"variant": "MEEAILVPCVLGLLLLPILAMLMALCVHCHRLPGSYDSTSSDSLYPRGIQFKRPHTVAPWPPAYPPVTSYPPLSQPDLLPIPRSPQPLGGSHRTPSSRRDSDGANSVASYENEGASGIRGAQAGWGVWGPSWTRLTPVSLPPEPACEDADEDEDDYHNPGYLVVLPDSTPATSTAAPSAPALSTPGIRDSAFSMESIDDFVNVPESGESAEASLDGSREFVNVSQELHPGAAKTEPAALSSQEAEEVEEEGAPDYENLQELN", "note": "[Y200F;Y220F]", "effect of a mutation on the interaction": "decreasing interaction"}]}]}
